Assay results: article PMC9352680, “A comprehensive thermodynamic model for RNA binding by the Saccharomyces cerevisiae Pumilio protein PUF4”

T1: PUF4 RNA-binding domain (Saccharomyces cerevisiae, UniProt P25339 537-888)
T1 sequence: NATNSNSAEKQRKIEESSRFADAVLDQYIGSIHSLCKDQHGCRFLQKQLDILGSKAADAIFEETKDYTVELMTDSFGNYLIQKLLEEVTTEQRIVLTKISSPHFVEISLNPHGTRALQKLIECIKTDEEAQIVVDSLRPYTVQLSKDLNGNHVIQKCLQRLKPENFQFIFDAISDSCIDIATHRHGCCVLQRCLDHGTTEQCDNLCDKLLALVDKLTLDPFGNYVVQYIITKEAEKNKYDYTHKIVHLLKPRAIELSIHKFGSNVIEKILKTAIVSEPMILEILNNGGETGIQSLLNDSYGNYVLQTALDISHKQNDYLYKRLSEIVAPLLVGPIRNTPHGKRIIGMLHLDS

B1: Ib_S3_P5E.1_K5.1_C5.1_H5.1_[T3G]_A5.1_[T5C]_F5.1_T5.1 (ssRNA)
RNA: ACAAACUGGACUAUUAACAAAC
B2: Ib_S3_P5E.1_K5.1_C5.1_H5.1_[G2T]_A5.1_[T5A]_F5.1_T5.1 (ssRNA)
RNA: ACAAACUUUAAUAUUAACAAAC
B3: Ib_S3_P5E.1_K5.1_C5.1_H5.1_[T1A]_A5.1_[A7T]_F5.1_T5.1 (ssRNA)
RNA: ACAAACAGUAUUUUUAACAAAC
B4: Ib_S3_P5E.1_K5.1_C5.1_H5.1_[A4C]_A5.1_[T5C]_F5.1_T5.1 (ssRNA)
RNA: ACAAACUGUCCUAUUAACAAAC
B5: Ib_S4_P3E.1_K3.1_C3.1_H3.1_A3.1_F3.1_[T7G]_[A8C]_T3.1 (ssRNA)
RNA: UUUGACAACUGAUCGUUCUUUCUUGUAUAGCUUCUUUCUCGAUCAGUUGUCUUU
B6: Ib_S4_P3E.1_K3.1_C3.1_H3.1_[T1G]_A3.1_F3.1_[A8T]_T3.1 (ssRNA)
RNA: UUUGACAACUGAUCGUUCUUUCUGGUAUAUUUUCUUUCUCGAUCAGUUGUCUUU
B7: Ib_S4_P3E.1_K3.1_C3.1_H3.1_[G2C]_A3.1_F3.1_[T7A]_T3.1 (ssRNA)
RNA: UUUGACAACUGAUCGUUCUUUCUUCUAUAAAUUCUUUCUCGAUCAGUUGUCUUU
B8: Ib_S4_P3E.1_K3.1_C3.1_H3.1_[G2T]_A3.1_F3.1_[A8G]_T3.1 (ssRNA)
RNA: UUUGACAACUGAUCGUUCUUUCUUUUAUAUGUUCUUUCUCGAUCAGUUGUCUUU
B9: Ib_S4_P3E.1_K3.1_C3.1_H3.1_[T1C]_A3.1_F3.1_[A8T]_T3.1 (ssRNA)
RNA: UUUGACAACUGAUCGUUCUUUCUCGUAUAUUUUCUUUCUCGAUCAGUUGUCUUU
B10: Ib_S4_P3E.1_K3.1_C3.1_H3.1_[A4G]_A3.1_F3.1_[T7A]_T3.1 (ssRNA)
RNA: UUUGACAACUGAUCGUUCUUUCUUGUGUAAAUUCUUUCUCGAUCAGUUGUCUUU
B11: Ib_S4_P3E.1_K3.1_C3.1_H3.1_[A4C]_A3.1_F3.1_[T7C]_T3.1 (ssRNA)
RNA: UUUGACAACUGAUCGUUCUUUCUUGUCUACAUUCUUUCUCGAUCAGUUGUCUUU
B12: Ib_S4_P3E.1_K3.1_C3.1_H3.1_A3.1_F3.1_[T7C]_[A8C]_T3.1 (ssRNA)
RNA: UUUGACAACUGAUCGUUCUUUCUUGUAUACCUUCUUUCUCGAUCAGUUGUCUUU
B13: Ib_S4_P3E.1_K3.1_C3.1_H3.1_[G2C]_A3.1_F3.1_[A8C]_T3.1 (ssRNA)
RNA: UUUGACAACUGAUCGUUCUUUCUUCUAUAUCUUCUUUCUCGAUCAGUUGUCUUU
B14: Ib_S4_P3E.1_K3.1_C3.1_H3.1_[T1A]_A3.1_F3.1_[T7C]_T3.1 (ssRNA)
RNA: UUUGACAACUGAUCGUUCUUUCUAGUAUACAUUCUUUCUCGAUCAGUUGUCUUU
B15: Ib_S4_P3E.1_K3.1_C3.1_H3.1_A3.1_F3.1_[T7C]_[A8G]_T3.1 (ssRNA)
RNA: UUUGACAACUGAUCGUUCUUUCUUGUAUACGUUCUUUCUCGAUCAGUUGUCUUU
B16: Ib_S4_P3E.1_K3.1_C3.1_H3.1_[G2A]_A3.1_F3.1_[T7A]_T3.1 (ssRNA)
RNA: UUUGACAACUGAUCGUUCUUUCUUAUAUAAAUUCUUUCUCGAUCAGUUGUCUUU
B17: Ib_S4_P3E.1_K3.1_C3.1_H3.1_[G2C]_A3.1_F3.1_[T7C]_T3.1 (ssRNA)
RNA: UUUGACAACUGAUCGUUCUUUCUUCUAUACAUUCUUUCUCGAUCAGUUGUCUUU
B18: Ib_S3_P5E.1_K5.1_C5.1_H5.1_[T1G]_A5.1_[A7T]_F5.1_T5.1 (ssRNA)
RNA: ACAAACGGUAUUUUUAACAAAC
B19: Ib_S3_P5E.1_K5.1_C5.1_H5.1_[T1C]_[G2C]_A5.1_F5.1_T5.1 (ssRNA)
RNA: ACAAACCCUAUUAUUAACAAAC
B20: Ia_S2_P5E.1_K5.1_C5.1_H5.1_A5.1_[A7G]_F5.1_T5.1 (ssRNA)
RNA: UUUGAUUAAUAUGAUAUCGUUCUUUCUUGUAUUGUUAUUCUUUCUCGAUAUCAUAUUAAUCUUU
B21: Ia_S2_P5E.1_K5.1_C5.1_H5.1_A5.1_[A7C]_F5.1_T5.1 (ssRNA)
RNA: UUUGAUUAAUAUGAUAUCGUUCUUUCUUGUAUUCUUAUUCUUUCUCGAUAUCAUAUUAAUCUUU
B22: Ia_S2_P5E.1_K5.1_C5.1_H5.1_A5.1_[A7T]_F5.1_T5.1 (ssRNA)
RNA: UUUGAUUAAUAUGAUAUCGUUCUUUCUUGUAUUUUUAUUCUUUCUCGAUAUCAUAUUAAUCUUU
B23: Ia_S3_P3E.1_K3.1_C3.1_H3.1_[T1A]_A3.1_F3.1_T3.1 (ssRNA)
RNA: ACAAACAGUAUAUAACAAAC
B24: Ib_S3_P5E.1_K5.1_C5.1_H5.1_[A4C]_A5.1_F5.1_[A10T]_T5.1 (ssRNA)
RNA: ACAAACUGUCUUAUUUACAAAC
B25: Ib_S3_P5E.1_K5.1_C5.1_H5.1_[T1C]_[G2T]_A5.1_F5.1_T5.1 (ssRNA)
RNA: ACAAACCUUAUUAUUAACAAAC
B26: Ib_S3_P5E.1_K5.1_C5.1_H5.1_[T3A]_A5.1_[T5C]_F5.1_T5.1 (ssRNA)
RNA: ACAAACUGAACUAUUAACAAAC
B27: Ib_S3_P5E.1_K5.1_C5.1_H5.1_[T3A]_[A4C]_A5.1_F5.1_T5.1 (ssRNA)
RNA: ACAAACUGACUUAUUAACAAAC
B28: Ib_S3_P5E.1_K5.1_C5.1_H5.1_[T1A]_A5.1_[T6C]_F5.1_T5.1 (ssRNA)
RNA: ACAAACAGUAUCAUUAACAAAC
B29: Ib_S3_P5E.1_K5.1_C5.1_H5.1_[G2T]_A5.1_[T6C]_F5.1_T5.1 (ssRNA)
RNA: ACAAACUUUAUCAUUAACAAAC
B30: Ib_S3_P5E.1_K5.1_C5.1_H5.1_[G2A]_[T3A]_A5.1_F5.1_T5.1 (ssRNA)
RNA: ACAAACUAAAUUAUUAACAAAC
B31: Ib_S3_P5E.1_K5.1_C5.1_H5.1_[G2A]_A5.1_[T6A]_F5.1_T5.1 (ssRNA)
RNA: ACAAACUAUAUAAUUAACAAAC
B32: Ib_S3_P5E.1_K5.1_C5.1_H5.1_[G2A]_A5.1_F5.1_[A10T]_T5.1 (ssRNA)
RNA: ACAAACUAUAUUAUUUACAAAC
B33: Ib_S3_P5E.1_K5.1_C5.1_H5.1_[G2A]_A5.1_[T5G]_F5.1_T5.1 (ssRNA)
RNA: ACAAACUAUAGUAUUAACAAAC
B34: Ib_S3_P5E.1_K5.1_C5.1_H5.1_[T1C]_A5.1_[A7T]_F5.1_T5.1 (ssRNA)
RNA: ACAAACCGUAUUUUUAACAAAC
B35: Ib_S3_P5E.1_K5.1_C5.1_H5.1_[A4C]_A5.1_[A7C]_F5.1_T5.1 (ssRNA)
RNA: ACAAACUGUCUUCUUAACAAAC
B36: Ib_S3_P5E.1_K5.1_C5.1_H5.1_[G2A]_[A4T]_A5.1_F5.1_T5.1 (ssRNA)
RNA: ACAAACUAUUUUAUUAACAAAC
B37: Ib_S3_P5E.1_K5.1_C5.1_H5.1_[T1G]_[A4C]_A5.1_F5.1_T5.1 (ssRNA)
RNA: ACAAACGGUCUUAUUAACAAAC
B38: Ib_S3_P5E.1_K5.1_C5.1_H5.1_[T1A]_A5.1_[T6A]_F5.1_T5.1 (ssRNA)
RNA: ACAAACAGUAUAAUUAACAAAC
B39: Ib_S3_P5E.1_K5.1_C5.1_H5.1_[G2C]_A5.1_[T6A]_F5.1_T5.1 (ssRNA)
RNA: ACAAACUCUAUAAUUAACAAAC
B40: Ib_S3_P5E.1_K5.1_C5.1_H5.1_[T1C]_A5.1_[T6A]_F5.1_T5.1 (ssRNA)
RNA: ACAAACCGUAUAAUUAACAAAC
B41: Ib_S3_P5E.1_K5.1_C5.1_H5.1_[G2C]_[T3C]_A5.1_F5.1_T5.1 (ssRNA)
RNA: ACAAACUCCAUUAUUAACAAAC
B42: Ib_S3_P5E.1_K5.1_C5.1_H5.1_[T1G]_A5.1_[T6C]_F5.1_T5.1 (ssRNA)
RNA: ACAAACGGUAUCAUUAACAAAC
B43: Ib_S3_P5E.1_K5.1_C5.1_H5.1_[G2T]_A5.1_F5.1_[A10T]_T5.1 (ssRNA)
RNA: ACAAACUUUAUUAUUUACAAAC
B44: Ib_S3_P5E.1_K5.1_C5.1_H5.1_[T1A]_[T3G]_A5.1_F5.1_T5.1 (ssRNA)
RNA: ACAAACAGGAUUAUUAACAAAC
B45: Ib_S3_P5E.1_K5.1_C5.1_H5.1_[T1A]_[A4C]_A5.1_F5.1_T5.1 (ssRNA)
RNA: ACAAACAGUCUUAUUAACAAAC

Biological target: T1, PUF4 RNA-binding domain
Assay: Mg; RNA-MaP; 20 mM Na-HEPES pH 7.4, 30 mM KOAc, 0.75 mM MgCl2, 0.1% Tween-20, 5% glycerol, 0.1 mg/mL BSA, 2 mM DTT; 25 C; 0.0125-409.6 nM protein
Settings: tags: N-His6-TEV cleaved; C-SNAP kept, Cy3B-labelled; label: tethered on chip by stalled RNA polymerase

B1 and B2 cannot be ordered by Kd: over 2300 nM for the first, over 2300 nM for the second.

Going from B3 to B4, the Kd falls from over 2300 nM to 545 nM. The second binds more tightly here.

Compared with B5, B6 is higher in Kd: 85.3 nM for the first, over 2300 nM for the second.

B7 and B8 cannot be ordered by Kd: over 2300 nM for the first, over 2300 nM for the second.

Going from B9 to B10, the Kd falls from 645 nM to 35.5 nM (18-fold).

Going from B11 to B12, the Kd falls from over 2300 nM to 28.9 nM. The second binds more tightly here.

B13 and B14 cannot be ordered by Kd: over 2300 nM for the first, over 2300 nM for the second.

First: B15
Second: B16
The Kd of the first is lower: 60.4 nM for the first, over 2300 nM for the second.

First: B17
Second: B18
The Kd of the first is 2.6-fold lower: 610 nM for the first, 1600 nM for the second. The first binds more tightly here.

Compared with B19, B20 is lower in Kd: over 2300 nM for the first, 11.6 nM for the second. The second binds more tightly here.

B21 and B22 are within 1.5-fold of each other in Kd: 3.06 nM for the first, 2.11 nM for the second.

Going from B23 to B24, the Kd falls from 2000 nM to 641 nM (3.1-fold).

B25 and B26 cannot be ordered by Kd: over 2300 nM for the first, over 2300 nM for the second.

B27 and B28 cannot be ordered by Kd: over 2300 nM for the first, over 2300 nM for the second.

B29 and B30 cannot be ordered by Kd: over 2300 nM for the first, over 2300 nM for the second.

B31 and B32 are within 1.5-fold of each other in Kd: 1050 nM for the first, 994 nM for the second.

B33 and B34 cannot be ordered by Kd: over 2300 nM for the first, over 2300 nM for the second.

First: B35
Second: B36
The Kd of the first is lower: 2190 nM for the first, over 2300 nM for the second.

Compared with B37, B38 is lower in Kd: over 2300 nM for the first, 1740 nM for the second. The second binds more tightly here.

First: B39
Second: B40
The Kd of the first is higher: over 2300 nM for the first, 1180 nM for the second. The second binds more tightly here.

Compared with B41, B42 is lower in Kd: over 2300 nM for the first, 1450 nM for the second.

B43 and B44 cannot be ordered by Kd: over 2300 nM for the first, over 2300 nM for the second.

B45 gave a Kd of over 2300 nM.
